According to paper PMC3427180, “Zea mays Taxilin Protein Negatively Regulates Opaque-2 Transcriptional Activity by Causing a Change in Its Sub-Cellular Distribution” (PLoS ONE, 2012):

Molecular target: T1, Full length Zea mays Opaque-2 (ZmO2) fused to the GAL4 DNA binding domain (Zea mays, UniProt P12959 1-453)
T1 sequence (looked up): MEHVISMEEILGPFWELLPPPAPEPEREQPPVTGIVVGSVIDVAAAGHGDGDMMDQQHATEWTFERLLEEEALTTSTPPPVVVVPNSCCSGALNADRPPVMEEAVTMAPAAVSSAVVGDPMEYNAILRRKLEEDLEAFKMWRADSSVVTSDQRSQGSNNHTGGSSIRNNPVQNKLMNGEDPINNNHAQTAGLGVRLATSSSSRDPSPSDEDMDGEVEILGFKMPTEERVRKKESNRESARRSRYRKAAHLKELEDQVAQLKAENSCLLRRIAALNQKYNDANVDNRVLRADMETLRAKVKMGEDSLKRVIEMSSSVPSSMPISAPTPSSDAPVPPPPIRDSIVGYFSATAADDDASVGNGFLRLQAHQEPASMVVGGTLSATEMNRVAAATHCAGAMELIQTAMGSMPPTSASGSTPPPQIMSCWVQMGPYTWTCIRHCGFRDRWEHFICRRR
Assay: cell-based or functional assay

GUS/luciferase ratio from the z1C (22-kD zein) promoter reporter in onion epidermal cells; YFP-O2 co-expressed with CFP-Taxilin against YFP-O2 alone: 47%
B1: Full length ZmTaxilin fused to the GAL4 activation domain (natural protein, Zea mays, UniProt C0P5X2 1-425, looked up)
chain: MEGSPVARLPEANSLPDGFVPDSESSDTDAAPPSSAPIVDDAIDSDSPDATNPGGEETLSDPSLPASTAEDASSAAAAEALDTLCLDVVADPERALGEHGPTTAARGEGSLKENRASEQVGAPSDQKVVKGSGEPKRKVIKHSKLEKDKELFQLAQQYHKVVAERDQAIAVKDRLESLCREFQRQNKMLKEECQRVSTEGQNMRTELSEKFDHAIKGVSAKLEEQRVERISQLEENNTLRSKLKDLADQYNITQQKYAHQLKEKMLELELADLRLQQHQEKAAQEHTQMQLYAEQVSQLMTTEKNLRLQLASDGERFQHFQDALSKSNEVFETYKQEMEKMISVIKNLKKENEFLKGKCENSDIAIVKLIEERELTKKQIEKLKNQREKLESLCRTLQAERKQGPSASIPDAPSSQEVSATSQES
